By stoichiometry N is commonly meant the number of molecules, sites or subunits per partner or assembly.

This passage reports stoichiometry N results from PMC10087246.

The experiment concerns the target SCO3201 (amino acids 21–216), TetR/AcrR-like regulator from Streptomyces coelicolor (Streptomyces coelicolor) (UniProt Q9KYU4). In words: SAXS.

Regarding “SCO3201 (amino acids 21–216), TetR/AcrR-like regulator from Streptomyces coelicolor (from UniProt Q9KYU4 21-216) (domain or fragment)”, the stoichiometry N is 2.
